According to patent US20040167074A1, “Therapeutic applications of mFLINT polypeptides” (priority 1998, published 2004):
Each block holds one molecule with its values, some of them ahead of it.

Legend:
[1] = target: murine FasL of anti-CD3-stimulated mouse T cell hybridoma cells (LTT cells) (mouse) (UniProt P41047)
[2] = target: murine FasL of anti-CD3-stimulated mouse T cell hybridoma cells (LTT cells) (mouse) (UniProt P41047); remark: listed apart in the source
[3] = target: hFasLigand (Flag-tagged) (human) (UniProt P48023); test: competition ELISA: mrecFas 100 ng adsorbed, hFasLigand-Flag 30 ng, FLINT 50 ng; signal is FasL bound to Fas
[4] = target: hFasLigand (Flag-tagged) (human) (UniProt P48023); test: competition ELISA: mrecFas 100 ng adsorbed, hFasLigand-Flag 30 ng, FLINT 500 ng; signal is FasL bound to Fas
[5] = target: FasL expressed by anti-CD3-activated Jurkat cells
[6] = target: soluble Fas L (recombinant FasL)
[7] = target: FasL expressed by anti-CD3-activated Jurkat cells; remark: listed apart in the source
[8] = target: hFasLigand (Flag-tagged) (human) (UniProt P48023); test: competition ELISA: mrecFas 100 ng adsorbed, hFasLigand-Flag 30 ng, FLINT 10 ng; signal is FasL bound to Fas
[9] = target: hFasLigand (Flag-tagged) (human) (UniProt P48023); test: competition ELISA: mrecFas 100 ng adsorbed, hFasLigand-Flag 30 ng, FLINT 100 ng; signal is FasL bound to Fas
[10] = target: hFasLigand (Flag-tagged) (human) (UniProt P48023); test: competition ELISA: mrecFas 100 ng adsorbed, hFasLigand-Flag 30 ng, FLINT 5 ng; signal is FasL bound to Fas
[11] = target: hFasLigand (Flag-tagged) (human) (UniProt P48023); test: competition ELISA: mrecFas 100 ng adsorbed, hFasLigand-Flag 30 ng, FLINT 1 ng; signal is FasL bound to Fas
[12] = mouse, in vivo
Source text: These animals are also useful in further delineating useful treatment protocols for the conditions set out above. Transgene construction. […] The 5' primer, [NT], a BglII restriction site and the 3' primer, [NT], contained an SpeI restriction enzyme site. These were used to amplify the entire FLINT and FLAG coding region. The amplified 1.1 kb fragment was ligated into the multiple cloning site of plasmid […]2 generating plasmid […] (6.7 kb). See Fox et al, Eur. J. Pharmacol. 308:195 (1996). The FLINT gene fragment was excised from […] by BglII and SpeI digestion and gel-purified. This fragment then was blunted with Klenow enzyme and ligated into the Klenow-blunted MluI site of plasmid pLIV.7, provided by John Taylor of the J. David Gladstone Institutes. See Fan et al., Proc. Nat'l Acad. Sci. 91:8724 (1994). Resultant plasmid […] also contains the apo E gene promoter/5' flanking region and an hepatic enhancer sequences called the “hepatic control region” (HCR). […] Broad tissue expression was detected in line 6494 progeny by Northern blot, RT-PCR (TaqMan), Western blot and immunohistochemical analysis and was highest in the liver and kidney. High levels of FLINT protein were detected in the circulation of line 6494 mice by ELISA assay; founder level=490 ng/ml; progeny levels ranged from 285-1360 ng/ml (n=6). No endogenous FLINT was detected by these analyses.

mrecFas = test: Baseline Fas-FasLigand interaction ELISA; type: binding; details: mrecFas 100 ng adsorbed
Procedure: First a baseline experiment was done for the Fas-FasLigand interaction in vitro. Unless otherwise indicated, all washing steps use TBST (Tris Buffer Saline with Tween 20 from SIGMA) and were done 3 to 6 times.
mrecFas (100 ng) was adsorbed on to ELISA plate. Then the plate was is blocked by TBST plus 0.1% Gelatine. […] After washing the plate 6 times, anti-mouse-Abs-HRP (3000 dilution, Bio-Rad) was added to the wells. After washings three times, visualization enzymatic reaction using ABTS as a substrate was performed. Unless otherwise noted, an ELISA reader commercialized by Molecular Devices Corp. (Menlo Park, Calif.) was used.

Jurkat cells = test: Recombinant FasL induced Jurkat cell apoptosis (Annexin V/PI, FACS); type: cell-based; details: Jurkat + inducer alone 200 ng/ml, overnight
Procedure: One milliliter of 1×10^6 cell/ml was added into each well of 24 well tissue culture plate and treated with following reagents: soluble Fas L (200 ng), Fas L plus 1 ug mFLINT, Fas L plus 1 ug OPG2-Fc, Trail (200 ng), Trail plus 1 ug mFLINT. Cells were incubated overnight at 37° C. and then stained with Annexin V and PI.

bone marrow cells = test: Viable cell count of bone marrow cells from 5-FU treated mice after cytokine expansion; type: cell-based, mouse; details: FIG. 10; 3 days with SCF and IL-6; mFLINT 1 ug/ml, anti-FasL 1 ug/ml, FasL 0.15 ug/ml; control 3,300
Source text: Following a 3 day in vitro expansion period with cytokines, viable cells are counted and used to set up a CFU assay. If mFLINT or anti-FasL antibody protects progenitor cells from apoptosis, one would expect a greater number of colonies in these groups for the CFU assay. […] The values were: control cells: 3,300; FasL-treated cells: 3,000; anti-FasL-treated cells: 4,200; mFLINT-treated cells: 4,900.

Sequence of murine FasL of anti-CD3-stimulated mouse T cell hybridoma cells (LTT cells) (mouse) (P41047 whole entry): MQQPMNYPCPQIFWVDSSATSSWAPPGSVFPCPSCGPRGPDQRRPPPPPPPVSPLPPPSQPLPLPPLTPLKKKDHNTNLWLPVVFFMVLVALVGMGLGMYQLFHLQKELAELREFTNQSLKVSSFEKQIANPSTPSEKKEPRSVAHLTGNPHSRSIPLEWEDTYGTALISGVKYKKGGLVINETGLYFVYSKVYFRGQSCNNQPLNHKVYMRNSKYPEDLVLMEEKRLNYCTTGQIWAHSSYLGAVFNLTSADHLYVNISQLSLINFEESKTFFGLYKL

B3: FLINT protein: FLINT-FLAG expressed from Apo E promoter/HCR transgene in line 6494 transgenic mice (protein)
chain: VAETPTYPWRDAETGERLVCAQCPPGTFVQRPCRRDSPTTCGPCPPRHYTQFWNYLERCRYCNVLCGEREEEARACHATHNRACRCRTGFFAHAGFCLEHASCPPGAGVIAPGTPSQNTQCQPCPPGTFSASSSSSEQCQPHRNCTALGLALNVPGSSSHDTLCTSCTGFPLSTRVPGAEECERAVIDFVAFQDISIKRLQRLLQALEAPEGWGPTPRAGRAALQLKLRRRLTELLGAQDGALLVRLLQALRVARMPGLERSVRERFLPVH
modifications: glycosylated
notes: FLINT-FLAG expressed from Apo E promoter/HCR transgene in line 6494 transgenic mice
histopathologic findings [12]: No significant histopathologic findings
observable abnormalities [12]: no observable abnormalities

B4: FasL: Fas ligand; hFasLigand (Flag-tagged) in ELISA, soluble Fas L in cell assays (protein)
chain: QLFHLQKELAELRESTSQMHTASSLEKQIGHPSPPPEKKELRKVAHLTGKSNSRSMPLEWEDTYGIVLLSGVKYKKGGLVINETGLYFVYSKVYFRGQSCNNLPLSHKVYMRNSKYPQDLVMMEGKMMSYCTTGQMWARSSYLGAVFNLTSADHLYVNVSELSLVNFEESQTFFGLYKL
OD, 405 nM (mrecFas; FasL 1 ng): .1
OD, 405 nM (mrecFas; FasL 5 ng): .2
OD, 405 nM (mrecFas; FasL 10 ng): .3
OD, 405 nM (mrecFas; FasL 50 ng): .7
OD, 405 nM (mrecFas; FasL 100 ng): 1.2
OD, 405 nM (mrecFas; FasL 500 ng): 1.6
Cell apoptosis (Annexin V and PI, FACS) (Jurkat cells): 67.39
bone marrow cell count (bone marrow cells): 3,000 ×1000

Second part, led by results:

SFas % Annexin V Positive [1]: 56.7%
B1: solubleFas (sFas)(FasFc, mouse) (Fc fusion)
chain: QGTNSISESLKLRRRVRETDKNCSEGLYQGGPFCCQPCQPGKKKVEDCKMNGGTPTCAPCTEGKEYMDKNHYADKCRRCTLCDEEHGLEVETNCTLTQNTKCKCKPDFYCDSPGCEHCVRCASCEHGTLEPCTATSNTNCRKQSPRNR
MTS cytotoxicity assay, absorbance at 490 nm (absorbance at 490 nm) [2]: 1.46

OD, 405 nM [3]: 0.28 OD, 405 nM
OD, 405 nM [4]: 0.06 OD, 405 nM
apoptosis of Jurkat cells, positive staining with Annexin V (FACS) [5]: 18.7
apoptosis of Jurkat cells, Annexin V and PI (FACS) [6]: 3.32
apoptosis of Jurkat cells (dose series of mFLINT) [7]: 14.7
OD, 405 nM [8]: 0.36 OD, 405 nM
OD, 405 nM [9]: 0.18 OD, 405 nM
OD, 405 nM [10]: 0.36 OD, 405 nM
OD, 405 nM [11]: 0.36 OD, 405 nM
B2: mFLINT (mature human FLINT, non-Flagged, made according to Examples 8 and 9) (receptor)
chain: VAETPTYPWRDAETGERLVCAQCPPGTFVQRPCRRDSPTTCGPCPPRHYTQFWNYLERCRYCNVLCGEREEEARACHATHNRACRCRTGFFAHAGFCLEHASCPPGAGVIAPGTPSQNTQCQPCPPGTFSASSSSSEQCQPHRNCTALGLALNVPGSSSHDTLCTSCTGFPLSTRVPGAEECERAVIDFVAFQDISIKRLQRLLQALEAPEGWGPTPRAGRAALQLKLRRRLTELLGAQDGALLVRLLQALRVARMPGLERSVRERFLPVH
modifications: glycosylated
